Biological target: T1, FLAG-HA-RTN3L (human, UniProt O95197 1-1032)
T1 sequence (looked up): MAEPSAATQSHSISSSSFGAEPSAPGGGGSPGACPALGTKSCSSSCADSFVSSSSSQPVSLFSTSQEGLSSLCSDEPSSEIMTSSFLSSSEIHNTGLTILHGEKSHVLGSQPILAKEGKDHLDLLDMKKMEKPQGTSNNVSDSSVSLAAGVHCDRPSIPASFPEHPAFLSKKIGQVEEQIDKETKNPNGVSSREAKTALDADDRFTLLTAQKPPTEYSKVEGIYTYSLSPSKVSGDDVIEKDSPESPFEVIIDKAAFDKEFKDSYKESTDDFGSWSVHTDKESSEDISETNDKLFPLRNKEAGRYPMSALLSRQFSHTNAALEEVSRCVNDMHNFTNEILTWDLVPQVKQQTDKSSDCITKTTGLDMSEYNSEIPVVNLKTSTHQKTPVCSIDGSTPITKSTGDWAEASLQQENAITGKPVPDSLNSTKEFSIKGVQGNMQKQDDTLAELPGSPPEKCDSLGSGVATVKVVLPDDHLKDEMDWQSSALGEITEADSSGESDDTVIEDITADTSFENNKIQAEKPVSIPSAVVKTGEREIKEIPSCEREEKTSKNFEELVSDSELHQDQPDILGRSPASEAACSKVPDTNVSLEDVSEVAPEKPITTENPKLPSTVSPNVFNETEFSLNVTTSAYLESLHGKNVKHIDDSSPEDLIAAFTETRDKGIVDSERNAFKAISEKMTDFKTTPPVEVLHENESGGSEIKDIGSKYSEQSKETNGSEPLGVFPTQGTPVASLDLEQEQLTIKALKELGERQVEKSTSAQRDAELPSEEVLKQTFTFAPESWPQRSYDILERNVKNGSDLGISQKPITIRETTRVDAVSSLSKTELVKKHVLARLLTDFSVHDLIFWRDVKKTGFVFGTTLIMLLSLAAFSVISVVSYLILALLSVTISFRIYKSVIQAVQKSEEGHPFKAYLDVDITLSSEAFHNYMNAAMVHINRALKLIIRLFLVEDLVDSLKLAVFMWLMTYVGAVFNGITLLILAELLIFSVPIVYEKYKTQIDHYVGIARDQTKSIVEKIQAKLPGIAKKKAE
Assay: co-IP

B1: PEF1 (natural protein, human (endogenous in U2OS), UniProt Q9UBV8 1-284, looked up)
chain: MASYPYRQGCPGAAGQAPGAPPGSYYPGPPNSGGQYGSGLPPGGGYGGPAPGGPYGPPAGGGPYGHPNPGMFPSGTPGGPYGGAAPGGPYGQPPPSSYGAQQPGLYGQGGAPPNVDPEAYSWFQSVDSDHSGYISMKELKQALVNCNWSSFNDETCLMMINMFDKTKSGRIDVYGFSALWKFIQQWKNLFQQYDRDRSGSISYTELQQALSQMGYNLSPQFTQLLVSRYCPRSANPAMQLDRFIQVCTQLQVLTEAFREKDTAVQGNIRLSFEDFVTMTASRML
  PEF1 precipitated in the tagged sample relative to the untagged control: 4.8 x

Source: article PMC11575451 (The Journal of Cell Biology, 2024)
